Patent publication US20230416383A1

Experiments:
Assay in all cases: SPR, mean +/- SD (n = 3)
[1] = target: Cynomolgus FcγRIII (cynomolgus monkey) (UniProt Q8SPW2)
Human FcγRIIb (human) = Human FcγRIIb (human) (UniProt P31994)
[2] = target: Cynomolgus FcRn (cynomolgus monkey) (UniProt Q8SPV9)
[3] = target: Cynomolgus FcγRIIb (cynomolgus monkey)
[4] = target: Cynomolgus FcγRI (cynomolgus monkey)
[5] = target: recombinant Human Fc gamma RIIIA/CD16a (V176F) (human) (UniProt P08637)
Human FcγRIIIb (human) = Human FcγRIIIb (human) (UniProt O75015)
UniProt O75015, sequence (O75015 17-200 limits assumed): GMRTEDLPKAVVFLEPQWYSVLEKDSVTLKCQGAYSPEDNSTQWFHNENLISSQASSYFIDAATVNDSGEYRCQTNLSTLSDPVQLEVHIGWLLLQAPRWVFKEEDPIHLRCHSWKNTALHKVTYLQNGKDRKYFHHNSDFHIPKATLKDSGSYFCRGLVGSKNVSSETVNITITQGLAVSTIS

[6] = target: human FcγRI (hCD64) (human) (UniProt P12314)
UniProt P12314, sequence (P12314 16-288 limits assumed): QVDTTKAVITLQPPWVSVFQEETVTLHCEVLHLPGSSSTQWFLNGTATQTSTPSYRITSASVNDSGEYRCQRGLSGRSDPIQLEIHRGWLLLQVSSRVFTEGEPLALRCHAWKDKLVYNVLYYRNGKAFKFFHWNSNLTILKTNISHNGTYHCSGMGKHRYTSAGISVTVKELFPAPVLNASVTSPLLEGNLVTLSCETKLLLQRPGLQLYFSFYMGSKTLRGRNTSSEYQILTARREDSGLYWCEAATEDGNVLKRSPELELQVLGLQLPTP

Human FcγRIIa (human) = Human FcγRIIa (human) (UniProt P12318)
UniProt P12318, sequence (P12318 36-218 limits assumed): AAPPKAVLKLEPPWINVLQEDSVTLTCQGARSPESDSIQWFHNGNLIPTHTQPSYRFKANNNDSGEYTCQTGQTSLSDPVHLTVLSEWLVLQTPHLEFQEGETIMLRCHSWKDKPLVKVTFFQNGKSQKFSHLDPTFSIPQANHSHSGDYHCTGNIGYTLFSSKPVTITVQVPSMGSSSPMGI

[7] = target: Cynomolgus FcγRIIa (cynomolgus monkey)
[8] = target: recombinant Human Fc gamma RIIIA/CD16a (V176) (human) (UniProt P08637)

UniProt Q8SPW2, sequence (Q8SPW2 17-208 limits assumed): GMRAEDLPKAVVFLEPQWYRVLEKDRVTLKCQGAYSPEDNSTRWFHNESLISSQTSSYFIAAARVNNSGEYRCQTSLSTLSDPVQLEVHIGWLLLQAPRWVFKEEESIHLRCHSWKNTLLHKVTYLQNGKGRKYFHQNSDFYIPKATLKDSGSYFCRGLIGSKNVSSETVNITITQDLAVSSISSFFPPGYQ
UniProt P31994, sequence (P31994 46-217 limits assumed): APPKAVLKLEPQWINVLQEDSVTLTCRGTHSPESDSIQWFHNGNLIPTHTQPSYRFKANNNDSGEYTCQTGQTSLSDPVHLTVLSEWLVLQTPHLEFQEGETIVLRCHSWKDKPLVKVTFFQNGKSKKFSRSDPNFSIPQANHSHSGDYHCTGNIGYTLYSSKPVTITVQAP

Kd [1]: 580 nM
Kd (Human FcγRIIb (human)): 4230 nM
Kd [2]: 237 nM
Kd [3]: 2320 nM
Kd [4]: 18 nM
Kd [5]: 2820 nM
Kd (Human FcγRIIIb (human)): 7540 nM
Kd [6]: 0.2 nM
Kd (Human FcγRIIa (human)): 1570 nM
Kd [7]: 6340 nM
Kd [8]: 575 nM
Substance: Human IgG1 control (antibody)
